B1: library; numbered along this chain (parent)
chain: MRKPRAAVGSGHRKQAASQEGRQKHAKNNSQAKPSACDGLARQPEEVVLQASVSSYHLFRDVAEVTAFRGSLLSWYDQEKRDLPWRRRAEDEMDLDRRAYAVWVSEVMLQQTQVATVINYYTGWMQKWPTLQDLASASLEEVNQLWAGLGYYSRGRRLQEGARKVVEELGGHMPRTAETLQQLLPGVGRYTAGAIASIAFGQATGVVDGNVARVLCRVRAIGADPSSTLVSQQLWGLAQQLVDPARPGDFNQAAMELGATVCTPQRPLCSQCPVESLCRARQRVEQEQLLASGSLSGSPDVEECAPNTGQCHLCLPPSEPWDQTLGVVNFPRKASRKPPREESSATCVLEQPGALGAQILLVQRPNSGLLAGLWEFPSVTWEPSEQLQRKALLQELQRWAGPLPATHLRHLGEVVHTFSHIKLTYQVYGLALEGQTPVTTVPPGARWLTQEEFHTAAVSTAMKKVFRVYQGQQPGTCMGSKRSQVSSPCSRKKPRMGQQVLDNFFRSHISTDAHSLNSAAQ

Variants of: B1
Assay: 8OG:A repair function score (normalized; synonymous = 0, nonsense = -1) (normalized log-likelihood score); higher = more repair activity (WT-like)
Conditions: with 8OG:A DNA repair reporter (GFP) in HEK-293 MUTYH KO cells
Experimental: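 Saturation mutagenesis (NNN codon scan) of the MUTYH cDNA (521-aa nuclear isoform NM_001048174.1 / NP_001041639), stably expressed under doxycycline induction in HEK-293 MUTYH knockout cells. Cells were co-transfected with an 8OG:A-bearing GFP repair reporter plus mCherry and sorted 72 h later into GFP+ and GFP− bins, three replicates per tile. The Rosace log2 enrichment (GFP+ vs GFP−) was converted per tile to a normalized function score with synonymous variants centered at 0 and nonsense variants (codons 1-471) at -1; low-abundance variants were removed.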

Going from P34H to P34K, the “8OG:A repair function score” value rises from 0.142 to 0.166.

Going from T179G to T179L, the “8OG:A repair function score” value falls from 0.108 to 0.0629.

Compared with T112W, G205S is higher in “8OG:A repair function score” value: -1.35 for the first, -0.352 for the second.

Compared with T439L, R266I is lower in “8OG:A repair function score” value: -0.0119 for the first, -0.164 for the second.

Going from R266C to R266Y, the “8OG:A repair function score” value falls from -0.085 to -0.102.

First: E342A
Second: E342P
The “8OG:A repair function score” value of the first is higher: -0.0199 for the first, -0.298 for the second.

Compared with A162Y, A162G is higher in “8OG:A repair function score” value: -1.22 for the first, -0.456 for the second.

Compared with P264G, V441F is higher in “8OG:A repair function score” value: -0.159 for the first, -0.0997 for the second.

Compared with G412P, T449Y is higher in “8OG:A repair function score” value: -0.295 for the first, 0.0178 for the second.

Compared with P404L, P365F is lower in “8OG:A repair function score” value: 0.0132 for the first, -0.154 for the second.

Going from Q394T to Q394I, the “8OG:A repair function score” value falls from -0.314 to -0.343.

First: Q202C
Second: L58K
The “8OG:A repair function score” value of the first is higher: 0.0136 for the first, -0.021 for the second.

Going from R217I to S55K, the “8OG:A repair function score” value rises from -1.03 to 0.000876.

Compared with S55V, G222S is lower in “8OG:A repair function score” value: 0.00566 for the first, -0.439 for the second.

First: P437C
Second: P437Q
The “8OG:A repair function score” value of the first is lower: -0.244 for the first, -0.0348 for the second.

Going from P299R to R446D, the “8OG:A repair function score” value falls from -0.000753 to -0.442.

First: E303V
Second: E303R
The “8OG:A repair function score” value of the first is higher: -0.0344 for the first, -0.0675 for the second.

Going from S105C to A192Q, the “8OG:A repair function score” value falls from -0.577 to -1.03.

First: G186R
Second: G186E
The “8OG:A repair function score” value of the first is lower: -1.16 for the first, -0.989 for the second.

Going from Q450Y to A41D, the “8OG:A repair function score” value falls from 0.286 to -0.0561.

Compared with V379Y, K464E is higher in “8OG:A repair function score” value: -0.744 for the first, -0.152 for the second.

Going from K464W to A196Q, the “8OG:A repair function score” value falls from -0.474 to -0.897.

Compared with S507F, S507A is higher in “8OG:A repair function score” value: -0.0917 for the first, -0.0386 for the second.

First: Q470H
Second: Q470R
The “8OG:A repair function score” value of the first is lower: -0.029 for the first, -0.00198 for the second.

Going from S292H to S292T, the “8OG:A repair function score” value falls from -0.00367 to -0.0314.

First: D300W
Second: S294P
The “8OG:A repair function score” value of the first is lower: -0.16 for the first, -0.0152 for the second.

First: A253R
Second: A253T
The “8OG:A repair function score” value of the first is lower: -1.01 for the first, -0.994 for the second.

Going from P273V to T346W, the “8OG:A repair function score” value falls from -0.419 to -0.751.

First: D224P
Second: E433G
The “8OG:A repair function score” value of the first is lower: -0.861 for the first, 0.00508 for the second.

Going from Y76F to L145G, the “8OG:A repair function score” value rises from -0.0268 to 0.0263.

Compared with T122G, T122Q is higher in “8OG:A repair function score” value: -0.143 for the first, 0.0683 for the second.

First: S296N
Second: S296F
The “8OG:A repair function score” value of the first is lower: -0.0281 for the first, -0.00655 for the second.

Going from V468M to M478E, the “8OG:A repair function score” value rises from -0.0306 to 0.0141.

Compared with E64T, S276T is lower in “8OG:A repair function score” value: 0.00694 for the first, 0.0017 for the second.

Going from L49Q to L49H, the “8OG:A repair function score” value rises from -0.00358 to 0.0564.

Compared with R246P, R246W is higher in “8OG:A repair function score” value: -0.964 for the first, -0.645 for the second.

First: Q126F
Second: Q126T
The “8OG:A repair function score” value of the first is lower: 0.0114 for the first, 0.049 for the second.

Compared with G148D, G148E is lower in “8OG:A repair function score” value: -0.544 for the first, -0.792 for the second.

Compared with G148V, P331R is higher in “8OG:A repair function score” value: -1.08 for the first, -0.474 for the second.

Compared with S52T, T66Y is lower in “8OG:A repair function score” value: 0.00677 for the first, -0.00942 for the second.

Going from V107D to Y120K, the “8OG:A repair function score” value rises from -1.44 to 0.0493.

Going from G401R to G401K, the “8OG:A repair function score” value falls from -0.272 to -0.582.
